According to ChEMBL document CHEMBL2074551, “Drug resistance and ATP-dependent conjugate transport mediated by the apical multidrug resistance protein, MRP2, permanently expressed in human and canine cells” (Mol Pharmacol, 1999):

B1: ATP-binding cassette sub-family C member 2 (Rattus norvegicus) (protein)
chain: MDKFCNSTFWDLSLLESPEADLPLCFEQTVLVWIPLGFLWLLAPWQLYSVYRSRTKRSSITKFYLAKQVFVVFLLILAAIDLSLALTEDTGQATVPPVRYTNPILYLCTWLLVLAVQHSRQWCVRKNSWFLSLFWILSVLCGVFQFQTLIRALLKDSKSNMAYSYLFFVSYGFQIVLLILTAFSGPSDSTQTPSVTASFLSSITFSWYDRTVLKGYKHPLTLEDVWDIDEGFKTRSVTSKFEAAMTKDLQKARQAFQRRLQKSQRKPEATLHGLNKKQSQSQDVLVLEEAKKKSEKTTKDYPKSWLIKSLFKTFHVVILKSFILKLIHDLLVFLNPQLLKLLIGFVKSSNSYVWFGYICAILMFAVTLIQSFCLQSYFQHCFVLGMCVRTTVMSSIYKKALTLSNLARKQYTIGETVNLMSVDSQKLMDATNYMQLVWSSVIQITLSIFFLWRELGPSILAGVGVMVLLIPVNGVLATKIRNIQVQNMKNKDKRLKIMNEILSGIKILKYFAWEPSFQEQVQGIRKKELKNLLRFGQLQSLLIFILQITPILVSVVTFSVYVLVDSANVLNAEKAFTSITLFNILRFPLSMLPMVTSSILQASVSVDRLERYLGGDDLDTSAIRRVSNFDKAVKFSEASFTWDPDLEATIQDVNLDIKPGQLVAVVGTVGSGKSSLVSAMLGEMENVHGHITIQGSTAYVPQQSWIQNGTIKDNILFGSEYNEKKYQQVLKACALLPDLEILPGGDMAEIGEKGINLSGGQKQRVSLARAAYQDADIYILDDPLSAVDAHVGKHIFNKVVGPNGLLAGKTRIFVTHGIHFLPQVDEIVVLGKGTILEKGSYRDLLDKKGVFARNWKTFMKHSGPEGEATVNNDSEAEDDDDGLIPTMEEIPEDAASLAMRRENSLRRTLSRSSRSSSRRGKSLKNSLKIKNVNVLKEKEKEVEGQKLIKKEFVETGKVKFSIYLKYLQAVGWWSILFIILFYGLNNVAFIGSNLWLSAWTSDSDNLNGTNNSSSHRDMRIGVFGALGLAQGICLLISTLWSIYACRNASKALHGQLLTNILRAPMRFFDTTPTGRIVNRFSGDISTVDDLLPQTLRSWMMCFFGIAGTLVMICMATPVFAIIIIPLSILYISVQVFYVATSRQLRRLDSVTKSPIYSHFSETVTGLPIIRAFEHQQRFLAWNEKQIDINQKCVFSWITSNRWLAIRLELVGNLVVFCSALLLVIYRKTLTGDVVGFVLSNALNITQTLNWLVRMTSEAETNIVAVERISEYINVENEAPWVTDKRPPADWPRHGEIQFNNYQVRYRPELDLVLKGITCNIKSGEKVGVVGRTGAGKSSLTNCLFRILESAGGQIIIDGIDVASIGLHDLRERLTIIPQDPILFSGSLRMNLDPFNKYSDEEVWRALELAHLRSFVSGLQLGLLSEVTEGGDNLSIGQRQLLCLGRAVLRKSKILVLDEATAAVDLETDSLIQTTIRKEFSQCTVITIAHRLHTIMDSDKIMVLDNGKIVEYGSPEELLSNRGSFYLMAKEAGIENVNHTEL
B2: ATP-binding cassette sub-family C member 2 (Homo sapiens) (protein)
chain: MLEKFCNSTFWNSSFLDSPEADLPLCFEQTVLVWIPLGYLWLLAPWQLLHVYKSRTKRSSTTKLYLAKQVFVGFLLILAAIELALVLTEDSGQATVPAVRYTNPSLYLGTWLLVLLIQYSRQWCVQKNSWFLSLFWILSILCGTFQFQTLIRTLLQGDNSNLAYSCLFFISYGFQILILIFSAFSENNESSNNPSSIASFLSSITYSWYDSIILKGYKRPLTLEDVWEVDEEMKTKTLVSKFETHMKRELQKARRALQRRQEKSSQQNSGARLPGLNKNQSQSQDALVLEDVEKKKKKSGTKKDVPKSWLMKALFKTFYMVLLKSFLLKLVNDIFTFVSPQLLKLLISFASDRDTYLWIGYLCAILLFTAALIQSFCLQCYFQLCFKLGVKVRTAIMASVYKKALTLSNLARKEYTVGETVNLMSVDAQKLMDVTNFMHMLWSSVLQIVLSIFFLWRELGPSVLAGVGVMVLVIPINAILSTKSKTIQVKNMKNKDKRLKIMNEILSGIKILKYFAWEPSFRDQVQNLRKKELKNLLAFSQLQCVVIFVFQLTPVLVSVVTFSVYVLVDSNNILDAQKAFTSITLFNILRFPLSMLPMMISSMLQASVSTERLEKYLGGDDLDTSAIRHDCNFDKAMQFSEASFTWEHDSEATVRDVNLDIMAGQLVAVIGPVGSGKSSLISAMLGEMENVHGHITIKGTTAYVPQQSWIQNGTIKDNILFGTEFNEKRYQQVLEACALLPDLEMLPGGDLAEIGEKGINLSGGQKQRISLARATYQNLDIYLLDDPLSAVDAHVGKHIFNKVLGPNGLLKGKTRLLVTHSMHFLPQVDEIVVLGNGTIVEKGSYSALLAKKGEFAKNLKTFLRHTGPEEEATVHDGSEEEDDDYGLISSVEEIPEDAASITMRRENSFRRTLSRSSRSNGRHLKSLRNSLKTRNVNSLKEDEELVKGQKLIKKEFIETGKVKFSIYLEYLQAIGLFSIFFIILAFVMNSVAFIGSNLWLSAWTSDSKIFNSTDYPASQRDMRVGVYGALGLAQGIFVFIAHFWSAFGFVHASNILHKQLLNNILRAPMRFFDTTPTGRIVNRFAGDISTVDDTLPQSLRSWITCFLGIISTLVMICMATPVFTIIVIPLGIIYVSVQMFYVSTSRQLRRLDSVTRSPIYSHFSETVSGLPVIRAFEHQQRFLKHNEVRIDTNQKCVFSWITSNRWLAIRLELVGNLTVFFSALMMVIYRDTLSGDTVGFVLSNALNITQTLNWLVRMTSEIETNIVAVERITEYTKVENEAPWVTDKRPPPDWPSKGKIQFNNYQVRYRPELDLVLRGITCDIGSMEKIGVVGRTGAGKSSLTNCLFRILEAAGGQIIIDGVDIASIGLHDLREKLTIIPQDPILFSGSLRMNLDPFNNYSDEEIWKALELAHLKSFVASLQLGLSHEVTEAGGNLSIGQRQLLCLGRALLRKSKILVLDEATAAVDLETDNLIQTTIQNEFAHCTVITIAHRLHTIMDSDKVMVLDNGKIIECGSPEELLQIPGPFYFMAKEAGIENVNSTKF

Key:
[1] = substrate: CCCCC/C=C\C\C=C/C=C/C=C/[C@@H](SC[C@@H](NC(=O)CC[C@H](N)C(=O)O)C(=O)NCC(=O)O)[C@@H](O)CCCC(=O)O; assay: (§1) TP_TRANSPORTER: uptake in membrane vesicle from MRP2-expressing HEK-293 cells; assay type: functional, cell membranes, HEK293
[2] = substrate: C[C@]12CC[C@@H]3c4ccc(O)cc4CC[C@H]3[C@@H]1CC[C@@H]2O[C@@H]1O[C@H](C(=O)O)[C@@H](O)[C@H](O)[C@H]1O; assay: as §1; assay type: functional, cell membranes, HEK293

Protein	Km [1]	Km [2]
B1	1.1 µM	6.9 µM
B2	1 µM	7.2 µM
